Measurements taken from the supplement of paper PMC10724198.
± gives the standard deviation of the averaged measurements.

What follows are sequences tested on Saccharomyces cerevisiae (assay: protein stability index of tFT-peptide fusion (C-terminal peptide) (PSI (0-1 scale)); higher = more stable (slower turnover)). Settings: genetic background: wild type; temperature: 30 C.
Description: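 Multiplexed protein stability (MPS) profiling in S. cerevisiae. Random 12-aa peptides (tFT-X12 library) are fused to the C-terminus of a sfGFP-mCherry tandem fluorescent timer, after mCherry and a GGGS linker. Cells are FACS-sorted into 8 mCherry/sfGFP bins and deep-sequenced. The protein stability index (PSI) is the read-weighted bin average, scaled from 0 (unstable) to 1 (stable). Only peptides with >10 reads are reported; cells were grown at 30 °C in SC-His with glucose.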
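Also: PSI is a weighted mean of sequencing reads over stability bins, variants kept only with over 10 reads, mCherry proximal and sfGFP distal, peptide attached via GGGS linker.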

Sequence | protein stability index
FTSPLPPVAPPL | 0.693 ± 0.03
FTVCVIYSKPSQ | 0.5872 ± 0.0013
FTWFGAFLSCFV | 0.61 ± 0.069
FVADRLIFGKSL | 0.71 ± 0.044
FVASVGVGGGVG | 0.58 ± 0.013
FVGAAALSVWGG | 0.645 ± 0.0072
FVLADLVPILFS | 0.7102 ± 0.0013
FVLLGVRGVAGW | 0.709 ± 0.02
FVLSVDLSVEGS | 0.585 ± 0.037
FVNKRRGCRELE | 0.701 ± 0.0053
FVQSMGVGLGWG | 0.694 ± 0.026
FVRPPHTTHPHP | 0.681 ± 0.041
FVSFFPFPFLLL | 0.482 ± 0.045
FVSGLEMCRTCF | 0.672 ± 0.025
FVSLVATASHWV | 0.568 ± 0.033
FVSSFSCVGLVL | 0.644 ± 0.08
FWGGGGGVGLAV | 0.683 ± 0.063
FWMPKASALGAA | 0.655 ± 0.019
FYPSRVPPLQSA | 0.662 ± 0.056
FYREFNSSSVCT | 0.788 ± 0.24
FYRPNLLNAGRL | 0.715 ± 0.023
FYRWDTFRWTRG | 0.683 ± 0.01
FYYAERGSVERQ | 0.641 ± 0.0095
GACHNVGVGPLG | 0.67 ± 0.024
GACPARGRFLRR | 0.753 ± 0.086

Sequence | protein stability index
GACSPQTNDSSR | 0.709 ± 0.035
GADPPGHSSDDS | 0.712 ± 0.11
GADTSRSYRIGL | 0.757 ± 0.0085
GAFCGGSSVFYL | 0.659 ± 0.01
GAFRQGYCLSGL | 0.67 ± 0.025
GAGAHCVSWLSN | 0.695 ± 0.0076
GAGDGRGRIEGR | 0.674 ± 0.015
GAGGCNVGWRIR | 0.7265 ± 0.0014
GAGKGWARWLVW | 0.632 ± 0.041
GAGMAGEVVGDG | 0.637 ± 0.026
GAGWCDGGRGGV | 0.6747 ± 0.0014
GAGWLSWEGGGD | 0.686 ± 0.04
GALLLVPFFWGE | 0.668 ± 0.018
GAPLALSVSFPG | 0.648 ± 0.014
GAQSRQMRSLAQ | 0.65 ± 0.11
GARAGLIDALLS | 0.675 ± 0.021
GARGMGGLFFLG | 0.728 ± 0.053
GARSRLFRWWVA | 0.601 ± 0.012
GASDWVMLYWVV | 0.584 ± 0.0098
GASGLRIIQVSW | 0.671 ± 0.0098
GASGVYMLDAYA | 0.632 ± 0.058
GASPRAYPLPPP | 0.707 ± 0.032
GATGGAWGVWAG | 0.676 ± 0.019
GAVARFRPCWPL | 0.633 ± 0.011
GAVWLLFCGGVG | 0.555 ± 0.024

Sequence | protein stability index
GCFFQPRWSLLS | 0.599 ± 0.0088
GCFLDLVFRSRI | 0.668 ± 0.0074
GCFLRHAPALRF | 0.735 ± 0.063
GCGSYELLRSAS | 0.68 ± 0.012
GCLDGLGLPCLS | 0.681 ± 0.079
GCLGDRVKSPIV | 0.638 ± 0.068
GCPHGTLFVSLE | 0.699 ± 0.065
GCRARKSRRTPT | 0.664 ± 0.011
GCRCWGVRVGCV | 0.5407 ± 0.003
GCRGEWGWVGRG | 0.691 ± 0.017
GCSCFLAGAFVL | 0.732 ± 0.038
GCSQGGRRSGNE | 0.644 ± 0.029
GDFFQRVVGGGG | 0.733 ± 0.16
GDFFVGLEWRDI | 0.622 ± 0.13
GDFILLCDFDPI | 0.712 ± 0.09
GDFSLCPMFCAP | 0.677 ± 0.071
GDGSNVSLFILF | 0.784 ± 0.13
GDGWLSGVPEEL | 0.74 ± 0.017
GDKKYRYGNKVF | 0.737 ± 0.086
GDRRRVFGSEQR | 0.662 ± 0.088
GDYKESAFRMDG | 0.761 ± 0.043
GEAWWLRGGGER | 0.757 ± 0.03
GEEGRNEQKQDA | 0.7249 ± 0.0011
GEGERVCVGSEF | 0.745 ± 0.033
GEGLWGGRGRRW | 0.687 ± 0.046

Sequence | protein stability index
GEGPTGAKQDYV | 0.6239 ± 0.0023
GEGRGLCNLVAG | 0.65 ± 0.025
GEGTERLGKSTR | 0.651 ± 0.046
GEKQVDGGDGQR | 0.6985 ± 0.0012
GEKREGRKTRRD | 0.608 ± 0.046
GERDWRAKRTRE | 0.692 ± 0.055
GERGGKGHEQGL | 0.623 ± 0.043
GERWSGVGEWVW | 0.739 ± 0.014
GESRDEGRGVRA | 0.638 ± 0.069
GEVIAYGSAWGL | 0.647 ± 0.014
GEWGRVGVPGCS | 0.718 ± 0.043
GEWRFCLGYRRR | 0.647 ± 0.018
GFCCPMFLALFS | 0.587 ± 0.022
GFCRWVRRDDCI | 0.693 ± 0.032
GFCTVVGGVVIG | 0.7202 ± 0.0016
GFFGDFIVFDFS | 0.777 ± 0.022
GFGFLQIVSGWL | 0.608 ± 0.067
GFGGWIVCLGGG | 0.669 ± 0.0096
GFGSEGQDMVGL | 0.6658 ± 0.0027
GFGSTTTRLALV | 0.662 ± 0.13
GFGVAGLVGKGV | 0.662 ± 0.053
GFIYRLCRISIP | 0.635 ± 0.025
GFKEGRSYWRFY | 0.74 ± 0.034
GFLIGRLGEGSG | 0.728 ± 0.023
GFLPCKVVRTCV | 0.549 ± 0.055

Sequence | protein stability index
GFLPSIVPPVPR | 0.753 ± 0.02
GFLPVQGQGLVD | 0.688 ± 0.045
GFRVSVGVVEGG | 0.6716 ± 0.0056
GFSLSGRFFLRC | 0.708 ± 0.013
GFSNKKNVPLTR | 0.568 ± 0.066
GFSSVILMHMPC | 0.7534 ± 0.0048
GFVFSRGLERPL | 0.675 ± 0.062
GFVPGGGGRSSV | 0.681 ± 0.0092
GFVRGDRSGGGG | 0.72 ± 0.0085
GFVVCVFPLLLP | 0.563 ± 0.029
GFWGSRTSGSIP | 0.7335 ± 0.007
GGAEACSDRGGG | 0.704 ± 0.018
GGAEGLHVRDVV | 0.722 ± 0.051
GGAGGGVWGGGV | 0.735 ± 0.014
GGAGGHCSHEWS | 0.728 ± 0.039
GGAMYVSFFDKF | 0.68 ± 0.021
GGARESGRVEQV | 0.676 ± 0.011
GGARPVWDPGFG | 0.684 ± 0.0031
GGCGGVWGACVV | 0.709 ± 0.023
GGCVTRYSSQRA | 0.656 ± 0.041
GGCVVGTGRRRY | 0.6114 ± 0.0061
GGDAGGVFSRLC | 0.632 ± 0.0096
GGDGGSDHHRER | 0.6856 ± 0.0044
GGEGGRALGVGR | 0.673 ± 0.028
GGEGLRGAAWGI | 0.653 ± 0.12

Sequence | protein stability index
GGEICPARECGA | 0.648 ± 0.042
GGFGAVPEVRAR | 0.725 ± 0.035
GGFICRHGVGRG | 0.708 ± 0.011
GGFLMVSPMDWA | 0.703 ± 0.026
GGFTSIRLTHLS | 0.698 ± 0.043
GGGAFVGLDFGG | 0.684 ± 0.0071
GGGAGGAVRRAS | 0.6932 ± 0.005
GGGAGGGGRRGR | 0.747 ± 0.01
GGGAGRSWFVGC | 0.711 ± 0.042
GGGARPTLDRAR | 0.637 ± 0.028
GGGAWGGMCGVV | 0.717 ± 0.047
GGGDGIHRYAGG | 0.7 ± 0.035
GGGERCEGVWVE | 0.579 ± 0.01
GGGEWGLGVRPR | 0.725 ± 0.008
GGGGEVARSAHR | 0.6696 ± 0.0056
GGGGGERGRGGS | 0.708 ± 0.02
GGGGGGLTGRVG | 0.711 ± 0.009
GGGGGSSWVGYG | 0.8981 ± 0.0027
GGGGGWGGGGGG | 0.7 ± 0.087
GGGGHMGGRLVK | 0.692 ± 0.039
GGGGKGTSGQGR | 0.688 ± 0.017
GGGGLDGYGGGG | 0.69 ± 0.029
GGGGLGWWEWDR | 0.736 ± 0.071
GGGGPGGLVGAA | 0.662 ± 0.035
GGGGSRRGVGDR | 0.687 ± 0.013

Sequence | protein stability index
GGGGTGTSGQGR | 0.718 ± 0.046
GGGIVGWFCRGR | 0.675 ± 0.068
GGGLGGGGGVWG | 0.7104 ± 0.004
GGGLGGVRGGVR | 0.628 ± 0.074
GGGLMVARFGPS | 0.664 ± 0.037
GGGLREARVLRG | 0.711 ± 0.015
GGGLSGEGGLGR | 0.639 ± 0.014
GGGLWLYKKLVF | 0.682 ± 0.13
GGGNEDCLRGGY | 0.651 ± 0.056
GGGNGGTGCDWG | 0.629 ± 0.018
GGGPWGRVGRGG | 0.679 ± 0.037
GGGRALEGAAGP | 0.583 ± 0.063
GGGRGGGGGGDA | 0.697 ± 0.038
GGGRGLRCNGLG | 0.738 ± 0.1
GGGRGNRGEKMT | 0.67 ± 0.012
GGGRGRAGVGVW | 0.714 ± 0.05
GGGVGASMSGTP | 0.689 ± 0.0069
GGGVGEWCLVRL | 0.6849 ± 4.4e-05
GGGVWQWERGRG | 0.811 ± 0.14
GGGWCSGYLAGV | 0.679 ± 0.056
GGGWSRGGSGAG | 0.687 ± 0.011
GGIPINVLPGCR | 0.739 ± 0.15
GGLGVGPGWWGP | 0.733 ± 0.043
GGLGWGARQGAL | 0.68 ± 0.024
GGLICRHGGGRG | 0.706 ± 0.02

Sequence | protein stability index
GGLWAAAGKARV | 0.692 ± 0.026
GGNDIIQNRKGK | 0.674 ± 0.039
GGNGIVPVWMNF | 0.695 ± 0.041
GGPAWGRVGMYW | 0.666 ± 0.047
GGPVGGGGGSGE | 0.641 ± 0.032
GGQGKWPGTPLL | 0.738 ± 0.022
GGRCGREGGAER | 0.61 ± 0.054
GGRCWMCVAVTE | 0.591 ± 0.019
GGRGGATRRGSL | 0.764 ± 0.055
GGRGGEVVLWQA | 0.726 ± 0.12
GGRGREGRPPGP | 0.641 ± 0.034
GGRNGLGITGGE | 0.648 ± 0.034
GGRRLKDAETWA | 0.615 ± 0.029
GGRRTEIYTGPA | 0.703 ± 0.019
GGRVWAGGYLGA | 0.707 ± 0.068
GGRWGDSGMGVV | 0.715 ± 0.026
GGSCGFGLGAGG | 0.665 ± 0.041
GGSDLLIGFWPC | 0.716 ± 0.027
GGSGPSGSPRRR | 0.727 ± 0.054
GGSSLSSSSVIR | 0.675 ± 0.036
GGSSWSLGGGGG | 0.7406 ± 0.0023
